Laboratory results: PMC5521740

Target: T1, His-CRP (cAMP receptor protein) (Klebsiella pneumoniae NTUH-K2044) (UniProt A0ACD7U7W2)
T1 sequence: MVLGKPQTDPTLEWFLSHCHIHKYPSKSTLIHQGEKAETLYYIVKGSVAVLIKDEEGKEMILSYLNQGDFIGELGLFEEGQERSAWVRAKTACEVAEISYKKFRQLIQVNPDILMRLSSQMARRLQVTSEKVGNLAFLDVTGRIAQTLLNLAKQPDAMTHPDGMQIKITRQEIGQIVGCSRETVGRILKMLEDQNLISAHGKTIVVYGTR
Test: DNase I footprinting
Conditions: 5x binding buffer ([…], room temperature, 20 min ([…]) or 30 min ([…]

**Q.** With “ATACCGGCAGCTGCGAGTAATTTTACGTTTTTCATGGTGTTTGTCCTTTTAACTTTTATGGTGGAAAGCATGTTTGCTTTCGATGGACTTATAATAAGTCTGCTAACTATAACGCGCGTGGCAAAAAGTGCGATTTAGATCACATTTTTATGGCGGTTTGATGGCGTAAACATGATCGTTTATCTATTTTTTAATTTAAAAACAATCAATTAATGATTTGCTTCTGAAAGGGGGTATCACAT (double strand) [KP1_4563 promoter footprinting fragment]” as the sequence, how does the binding read?
**A.** Its binding is “binds”.
